The RNAGym collection of RNA variant scans (doi:10.1073/pnas.2313332121)
This sample holds only a part of the variants without activity.

B1: TPR 5TU (parent)
chain: GGAUCUUCUCGAUCUAACAAAAAAGACAAAUCUGCCACAAAGCUUGAGAGCAUCUUCGGAUGCAGAGGCGGCAGCCUUCGGUGGCGCGAUAGCGCCAACGUUCUCAACUAUGACACGCAAAACGCGUGCUCCGUUGAAUGGAGUUUAUCAUG

Variants of: B1
Experiment: polymerase ribozyme fitness, log enrichment relative to wild type (log ratio); higher = more active; in vitro selection for triplet polymerase activity
Method in brief: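 To select mutant libraries of each subunit of a heterodimeric triplet polymerase ribozyme, built by PCR and transcribed, each was annealed with a biotinylated primer, partner subunit and triplets, then incubated frozen at −7 °C. Extended constructs were gel-excised, captured on streptavidin beads and amplified by RT-PCR, in one round carried out in triplicate. Illumina sequencing of input and output libraries kept genotypes with ≥10 input reads and ≥1 read per output. Fitness is the base-2 logarithm of genotype enrichment relative to wild-type enrichment, from inverse-variance-weighted replicate averages.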

Row | Variant | polymerase ribozyme fitness (log ratio)
1 | C54A C116U | -0.368
2 | C54A U56A C96U C105U G126A | -2.51
3 | C54U C99A U146G A150U | -3.6
4 | C54U G59A C76A C85U | 0.107
5 | U55A G74A | -3.26
6 | C54A U61C G65A G88U C95G C103G A115C A119C U135G U144G | ≤ -4.2
7 | U55A G88C U90C A122G G124A U148A | -4.18
8 | U53C U77G G124C U135C | ≤ -4.2
9 | C54U U82C U90C C96A U101G | ≤ -4.2
10 | C54G A64G G94A G100U C105A | ≤ -4.2
11 | U55G C96A U109G G143A | -3.3
12 | U53A G84U C103G U148G | ≤ -4.2
13 | U55A C85G C125U U144A | -3.47
14 | C54A A89G U90A C99G | ≤ -4.2
15 | C54U G59C A64C G94U A120G | ≤ -4.2
16 | U55G U56A U82A U145A | -1.23
17 | U55A C85A U102A | ≤ -4.2
18 | C54U C57G G94C U134A G136C | ≤ -4.2
19 | U53C U56A G58A C76A A120G U134C | -3.01
20 | C54A G92U | -2.39
21 | U53G C95U U139G | -1.58

Row | Variant | polymerase ribozyme fitness (log ratio)
22 | U55G G59U G67C U77A C96G A119C U139A U148G | ≤ -4.2
23 | U55G G59U U127C | -2.75
24 | U55A C79A | ≤ -4.2
25 | U55A G84A A121U | -1.24
26 | U55A C85U C116G G133C | -1.34
27 | U53A U144G | -2.22
28 | U55A C116U | -0.684
29 | C54U C123U G124A U144C | -0.47
30 | U55G G71A C87G G112C | ≤ -4.2
31 | C54U C87A A89G C96U A121U A142C | ≤ -4.2
32 | U55A A89U | -0.224
33 | C54G G86U U135A U139A | ≤ -4.2
34 | U55C A91G | -3.06
35 | U55C G74U | ≤ -4.2
36 | U55G C116G | 0.357
37 | U53A G92U | -1.74
38 | U53A G92C | -3.01
39 | U53G C123A G126C | -1.32
40 | U55G C93U C116U G141A U144G | -2.63
41 | U55G C85A C99U G136A | -3.43
42 | C54G C96G G128U | ≤ -4.2

Row | Variant | polymerase ribozyme fitness (log ratio)
43 | C54U G81A C93U C105A | -2.59
44 | C54A G143C | -2.81
45 | C54A G83C | -3.55
46 | C54A U77G C85U C93G G117C G136A | ≤ -4.2
47 | U55A U148A | -3.84
48 | C54U G84A C93G | ≤ -4.2
49 | U55A A73G U77G A91C C116A G141A | ≤ -4.2
50 | U55A A106G A113U G136C | ≤ -4.2
51 | C54G G81A C95U | -2.33
52 | U53C C116G | 0.204
53 | C54U C85U | -0.491
54 | U53A U151G | ≤ -4.2
55 | C54G C96U U111G G133U A137G | ≤ -4.2
56 | U55G C69A C87U C105A A138U | ≤ -4.2
57 | C54A G86U U101G | -3.14
58 | C54U G58A C93U | -1.1
59 | C54G G71C C85U C93U U144G | ≤ -4.2
60 | U55A C96A A107C C116A G124C U151A | ≤ -4.2
61 | U55A C69A C76U U82G | -3.45
62 | U53A G133U | -3.53
63 | U53C C87G U101A | ≤ -4.2

Row | Variant | polymerase ribozyme fitness (log ratio)
64 | U56A A73U G140A | -4.06
65 | C54G G74C G80A C96U A138U | ≤ -4.2
66 | C54U C76G A89C A91G G94U U146G | ≤ -4.2
67 | U53G G136C | -4.09
68 | U53G C85G | -3.69
69 | U53C C54U | -1.25
70 | C54U G117C C123U | -0.0466
71 | C54U G58A G94U | -0.705
72 | U53A G100A | ≤ -4.2
73 | U55G G88U | -4.02
74 | C54A U56A G67U C85A G88A U101G G141C | ≤ -4.2
75 | U55A C63A C96G | -2
76 | C54G C69A A73G G86U C105A C118A C125A U148A | ≤ -4.2
77 | U55A G59U C87U | -2.31
78 | C54U C76A C96A U127C G136A | -3.34
79 | U53A G94U | -3.17
80 | C54G G58A A89U A98G G133C | -2.63
81 | U55G U56A G59C C99G A142G | -2.78
82 | U55A G58C G68U G81A A91U C96A | ≤ -4.2
83 | U55G U61A | -3.22
